Biological target: GST-huFcγRIIA(R131) (human) [GST: P08515]
Assay: ELISA, plate-coated GST fusion (FIG. 8)

EC50: 2.5 µg/mL
B1: Antibody 5A6.2.1 (anti-human FcγRIIB monoclonal antibody) (antibody)
VH: EVKLEESGGGLVQPGGSMKLSCVASGFTFSDAWMDWVRQSPERGLEWVAEIRSKPNNHATYYAESVKGRFTISRDDSKSSVYLQMTSLRPEDTGIYYCTHFDYWGQGTTLTVSSAKTTGPSVFPLAPSSKSTSGGTAALGCLVKDYFPEPVTVSWNSGALTSGVHTFPAVLQSSGLYSLSSVVTVPSSSLGTQTYICNVNHKPSNTKVDKKVEPKSCDKTHT
VL: DIQMTQSPSSLSASLGERVSLTCRASQEISGYLSWFQQKPDGTIKRLIYAASALDSGVPKRFSGSWSGSDYSLTISSLESEDFADYYCLQYVSYPLTFGAGTKLELKRTVAAPSVFIFPPSDEQLKSGTASVVCLLNNFYPREAKVQWKVDNALQSGNSQESVTEQDSKDSTYSLSSTLTLSKADYEKHKVYACEVTHQGLSSPVTKSFNRGEC
